Legend:
[1] = test system: RNA substrate containing the U1A binding site from the 3′-untranslated region (UTR) of U1A mRNA; assay: U1A dissociation (off-rate) from RNA substrate, gel-shift with U1A trap
Description: (§1) FIG. 3. Active displacement of U1A by NPH-II. Dissociation experiments were conducted with 1 nM RNA substrate and 10 nM U1A in a buffer of 40 mM Tris/HCl (pH 8.0), 4 mM MgCl2 at 23° C. (final volume, 40 μL)- Reactions were performed as described in FIG. 2, except that they were initiated by addition of ATP (3.5 mM final concentration) and U1A trap (200 nM final concentration (16)), as indicated. Aliquots (6 μL) were withdrawn at 0, 1, 4, 8, 12, and 20 minutes, mixed with 2 μL of 100 mM EDTA and 2.5 μM NPH-II trap (which serves to capture dissociated NPH-II (16)) in 30% glycerol. Each aliquot was then loaded immediately on a 8% native polyacrylamide gel, which was run at 4° C. at 10V/cm. Bands were visualized by PhosphorImager. U1A-bound and free RNA as well as unwound and duplex RNA species are indicated by the cartoons at left (D: bound U1A dimer, M: bound U1A monomer, F: U1A free duplex substrate, U: unwound substrate). A. Release of U1A upon addition of ATP (initiated by adding ATP together with U1A trap). B. Release of U1A upon addition of NPH-II without ATP (initiated by adding only U1A trap). C. Release of U1A in the presence of ATP and NPH-II (initiated by adding ATP together with U1A trap) D. Trapping control: U1A trap is added together with RNA substrate to assess trapping efficiency. Aliquots were removed and treated as described above. E-H. Same reactions as above, but with blunt-end control duplex.
The off-rate for U1A was measured by saturating the substrate with U1A and, after complex formation, adding a large excess of RNA that contains another high-affinity U1A binding site (15). This prevented U1A from re-binding the substrate once it detached and enabled us to monitor the rate of U1A release by gel-shift electrophoresis (FIG. 3).

[2] = test system: RNA substrate containing the U1A binding site from the 3′-untranslated region (UTR) of U1A mRNA; conditions: previously shown; cited from earlier work
[3] = biological target: NPH-II (DExH RNA helicase) (Vaccinia virus) (UniProt P12927); assay: EMSA
[4] = biological target: U1A (N-terminal RNP domain, residues 1-117) (UniProt P09012); assay: EMSA
DNA = conditions: cited from earlier work
[5] = biological target: U1A (N-terminal RNP domain, residues 1-117) (UniProt P09012 P09012:1-117); assay: competition; used at 200 nM to trap dissociated U1A; conditions: chain copies: 2 (stated, dimer; monomer also seen); hairpin
Description: as §1, with “MgCl₂” for “MgCl2”, “E-H. Same reactions as above, but with blunt-end control duplex.” left out

Molecule: U1A: RNA-binding protein with N-terminal RNP domain, constituent of the spliceosomal machinery
- U1A binding to substrate and control RNA ([1]; gel shift, 1 nM RNA, 10 nM U1A): high affinity
- off-rate koff of U1A ([1]; without NPH-II (and ATP)): ~10^−2 min^−1
- U1A dissociates from the substrate ([1]; without NPH-II, within 20 minutes): roughly 15%
- affinity of extended two-piece substrate for U1A binding [2]: subnanomolar affinity

Molecule: 36 bp duplex substrate LS36 with 3' overhang
- activity ([3]; unwinding rate constant 3.5±0.2 independent of duplex length, Mg2+, 3.5 mM ATP): 3.5 min⁻¹

Molecule: 83 bp duplex substrate LS83 with 3' overhang
- activity ([3]; unwinding rate constant 3.5±0.2 independent of duplex length, lower amplitude with trap RNA, Mg2+, 3.5 mM ATP): 3.5 min⁻¹

Molecule: blunt-end U1A binding site control duplex
- koff ([4]; off-rate similar to overhang substrate, not increased by NPH-II plus ATP): 0.000167 s⁻¹

Molecule: multi-piece substrates (nicked top strand)
- activity ([3]; both pieces displaced, 3.3±0.5, Mg2+, trap RNA, 3'-to-5' directionality): 3.3 min⁻¹

Molecule: U1A 3'UTR binding site helicase substrate with 24-nt 3' overhang (AN22U-3')
- activity ([3]; unwinding rate constant without U1A, 3.5 mM ATP, 4 mM MgCl2, pH 8.0, room temperature, with U1A k1 3.52 min-1): 3.5 min⁻¹
- koff ([4]; 40 mM Tris pH 8.0, 4 mM MgCl2, 23 C, U1A trap, no NPH-II, high affinity binding at 10 nM U1A): 0.000167 s⁻¹

B1: UvrD DNA helicase: DNA helicase cited for comparison of unwinding step size (Ali and Lohmann, 1997) (protein, UniProt P03018 1-720, looked up)
DNA helicase II: MDVSYLLDSLNDKQREAVAAPRSNLLVLAGAGSGKTRVLVHRIAWLMSVENCSPYSIMAVTFTNKAAAEMRHRIGQLMGTSQGGMWVGTFHGLAHRLLRAHHMDANLPQDFQILDSEDQLRLLKRLIKAMNLDEKQWPPRQAMWYINSQKDEGLRPHHIQSYGNPVEQTWQKVYQAYQEACDRAGLVDFAELLLRAHELWLNKPHILQHYRERFTNILVDEFQDTNNIQYAWIRLLAGDTGKVMIVGDDDQSIYGWRGAQVENIQRFLNDFPGAETIRLEQNYRSTSNILSAANALIENNNGRLGKKLWTDGADGEPISLYCAFNELDEARFVVNRIKTWQDNGGALAECAILYRSNAQSRVLEEALLQASMPYRIYGGMRFFERQEIKDALSYLRLIANRNDDAAFERVVNTPTRGIGDRTLDVVRQTSRDRQLTLWQACRELLQEKALAGRAASALQRFMELIDALAQETADMPLHVQTDRVIKDSGLRTMYEQEKGEKGQTRIENLEELVTATRQFSYNEEDEDLMPLQAFLSHAALEAGEGQADTWQDAVQLMTLHSAKGLEFPQVFIVGMEEGMFPSQMSLDEGGRLEEERRLAYVGVTRAMQKLTLTYAETRRLYGKEVYHRPSRFIGELPEECVEEVRLRATVSRPVSHQRMGTPMVENDSGYKLGQRVRHAKFGEGTIVNMEGSGEHSRLQVAFQGQGIKWLVAAYARLESV
- unwinding step size (DNA): 4-5 bp

Molecule: GGAGAACCAUUGCACUCCGGUUCUUC (ssRNA) [U1A trap (U1 snRNA hairpin)]
- binding result [5]: binds
